Assay [1] has as its target T1, recombinant human midkine (huMK) (human, UniProt P21741 21-143).
T1 construct: also called human MK; Human MK
T1 sequence (looked up): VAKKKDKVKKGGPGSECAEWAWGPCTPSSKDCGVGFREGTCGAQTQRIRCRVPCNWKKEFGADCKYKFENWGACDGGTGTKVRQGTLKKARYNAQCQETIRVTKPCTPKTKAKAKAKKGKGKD
In words: ELISA, plate coated with huMK. The procedure:
(§1) The binding specificity and affinity of the humanised anti-MK antibodies to recombinant human MK (huMK) and murine MK (muMK) was assessed by ELISA. ELISA plates (Nunc Immuno MaxiSorp 96 well flat-bottom were coated with 100 uL of 2 ug/mL of either huMK or muMK in 2% BSA/PBS (overnight at room temperature). After washing, blocking (1 h at 37° C.), and washing again, the humanised anti-MK and chimeric antibodies described in Example 1 were analysed for binding to huMK or muMK at concentrations ranging between 3 μg/ml and 0.00004 μg/ml in 2% BSA/PBS (1 h at 37° C.). After washing, the binding of antibody was detected with goat anti-mouse IgG (Fab specific)-HRP conjugate (Sigma, Cat. No. A9917) and SigmaFast OPD substrate (Sigma, Cat. No. P9187). The reaction was stopped with 3 M HCl, absorbance read at 490 nm on a Dynex Technologies MRX TC II plate reader and the binding curves plotted. Binding affinity data for the humanised anti-MK antibodies to huMK and muMK are presented in Table 6 and Table 7 respectively, and in FIG. 3.

Assay [2] has as its target T2, recombinant murine midkine (muMK) (murine, UniProt P12025 23-140).
T2 construct: also called murine MK; Murine MK
T2 sequence (looked up): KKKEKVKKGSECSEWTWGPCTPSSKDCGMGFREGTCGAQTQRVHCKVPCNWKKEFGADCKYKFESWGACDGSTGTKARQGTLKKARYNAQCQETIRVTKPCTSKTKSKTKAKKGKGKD
As to the kind of experiment: ELISA, plate coated with muMK. The procedure:
as §1
(In general: An ELISA detects its analyte on a solid surface through an enzyme-linked reagent.)

B1: IP14-H1L8 (antibody, V domains shown)
VH: QVQLVQSGAEVKKPGHSVKVSCKASGQSFSSYWMNWVRQAPGQGLEWIGMIHPSDSETILNQKFKDKATLTVDISTSTAYMELSSPRSEDTAVYYCSSWSAKRGDFWGQGTLVTVSS
VL: DIVLTQSPATLSLSPGERATLSCRASESISNNLHWYQQKPHQAPRLLIYYASQSISGVPARFSGSGSGTDFTLTISSVEPEDFAVYYCQQSNSWPLTFGQGTKVEIKR
notes: also called hIP14-H1L8; Hv1 Lv8
As to B1, the EC50 (commonly the midpoint of the concentration-response curve) is 0.05 nM in assay [1] and 0.089 nM in assay [2].

B2: IP14-H2L6 (antibody, V domains shown)
VH: QVQLVQSGAEVKKPGASVKVSCKASGQSFSSYWMNWVRQAPGQGLEWIGMIHPSDSETILNQKFKDKATLTVDISTSTAYMELSSLRSEDTAVYYCSSWSAKRGDFWGQGTLVTVSS
VL: EIVLTQSPSTLSASVGDRVNITCRASESISNNLHWYQQKPHKAPKLLIYYASQSISGVPSRFSGSGSGTEFNLTISSVQPDDFATYYCQQSNSWPLTFGQGTKVEIKR
notes: also called Hv2 Lv6
B2: the EC50 in assay [1] amounted to 0.054 nM; in assay [2], 0.073 nM.

B3: IP14-H2L4 (antibody, V domains shown)
VH: QVQLVQSGAEVKKPGASVKVSCKASGQSFSSYWMNWVRQAPGQGLEWIGMIHPSDSETILNQKFKDKATLTVDISTSTAYMELSSLRSEDTAVYYCSSWSAKRGDFWGQGTLVTVSS
VL: EIVLTQSPDFQSVTPKEKVNITCRASESISNNLHWYQQKPHQSPKLLIYYASQSISGVPSRFSGSGSGTDFNLTINSVEAEDAATYYCQQSNSWPLTFGGGTKLEIKR
notes: also called Hv2 Lv4
In the case of B3, the values for the EC50 in assay [1] and in assay [2] were 0.053 nM and 0.078 nM, respectively.

B4: IP14-H1L4 (antibody, V domains shown)
VH: QVQLVQSGAEVKKPGHSVKVSCKASGQSFSSYWMNWVRQAPGQGLEWIGMIHPSDSETILNQKFKDKATLTVDISTSTAYMELSSPRSEDTAVYYCSSWSAKRGDFWGQGTLVTVSS
VL: EIVLTQSPDFQSVTPKEKVNITCRASESISNNLHWYQQKPHQSPKLLIYYASQSISGVPSRFSGSGSGTDFNLTINSVEAEDAATYYCQQSNSWPLTFGGGTKLEIKR
notes: also called Hv1 Lv4
As for B4, the figures for the EC50 in assay [1] and in assay [2] were 0.05 nM and 0.081 nM, respectively.

B5: IP14-H1L6 (antibody, V domains shown)
VH: QVQLVQSGAEVKKPGHSVKVSCKASGQSFSSYWMNWVRQAPGQGLEWIGMIHPSDSETILNQKFKDKATLTVDISTSTAYMELSSPRSEDTAVYYCSSWSAKRGDFWGQGTLVTVSS
VL: EIVLTQSPSTLSASVGDRVNITCRASESISNNLHWYQQKPHKAPKLLIYYASQSISGVPSRFSGSGSGTEFNLTISSVQPDDFATYYCQQSNSWPLTFGQGTKVEIKR
notes: also called Hv1 Lv6
On to B5, for which the EC50 in assay [1] is 0.053 nM; in assay [2], 0.087 nM.

B6: IP14-H2L3 (antibody, V domains shown)
VH: QVQLVQSGAEVKKPGASVKVSCKASGQSFSSYWMNWVRQAPGQGLEWIGMIHPSDSETILNQKFKDKATLTVDISTSTAYMELSSLRSEDTAVYYCSSWSAKRGDFWGQGTLVTVSS
VL: DIVLTQSPATLSLSPGERATLSCRASESISNNLHWYQQKPGQAPRLLIYYASQSISGIPARFSGSGPGTDFTLTISSLEPEDFAVYYCQQSNSWPLTFGGGTKLEIKR
notes: also called hIP14-H2L3; Hv2 Lv3
Take B6: the values for the concentration giving a half-maximal response (EC50) in assay [1] and in assay [2] were 0.068 nM and 0.081 nM, respectively.

B7: IP14-H3L1 (antibody, V domains shown)
VH: QVQLVQSGAEVKKPGASVKVSCKASGQSFSSYWMNWVRQAPGQGLEWMGMIHPSDSETILNQKFKDKVTMTRDTSTSTVYMELSSLRSEDTAVYYCARWSAKRGDFWGQGTLVTVSS
VL: EIVLTQSPATLSLSPGERANLSCRASESISNNLHWYQQKPHQAPRLLIKYASQSISGIPARFSGSGPGTDFNLTISSVEPEDFAVYYCQQSNSWPLTFGGGTKLEIKR
notes: also called Hv3 Lv1
As to B7, the results for the EC50 in assay [1] and in assay [2] were 0.091 nM and 0.12 nM, respectively.

B8: IP14-H2L7 (antibody, V domains shown)
VH: QVQLVQSGAEVKKPGASVKVSCKASGQSFSSYWMNWVRQAPGQGLEWIGMIHPSDSETILNQKFKDKATLTVDISTSTAYMELSSLRSEDTAVYYCSSWSAKRGDFWGQGTLVTVSS
VL: DIVLTQSPATLSLSPGERANLSCRASESISNNLHWYQQKPHQAPRLLIYYASQSISGVPARFSGSGSGTDFNLTISSVEPEDFAVYYCQQSNSWPLTFGQGTKVEIKR
notes: also called Hv2 Lv7
Regarding B8, the EC50 came out at 0.058 nM in assay [1] and 0.071 nM in assay [2].

B9: IP14-H2L1 (antibody, V domains shown)
VH: QVQLVQSGAEVKKPGASVKVSCKASGQSFSSYWMNWVRQAPGQGLEWIGMIHPSDSETILNQKFKDKATLTVDISTSTAYMELSSLRSEDTAVYYCSSWSAKRGDFWGQGTLVTVSS
VL: EIVLTQSPATLSLSPGERANLSCRASESISNNLHWYQQKPHQAPRLLIKYASQSISGIPARFSGSGPGTDFNLTISSVEPEDFAVYYCQQSNSWPLTFGGGTKLEIKR
notes: also called Hv2 Lv1
As for B9, the values for the concentration for a half-maximal effect (EC50) in assay [1] and in assay [2] were 0.093 nM and 0.09 nM, respectively.

B10: IP14-H2L8 (antibody, V domains shown)
VH: QVQLVQSGAEVKKPGASVKVSCKASGQSFSSYWMNWVRQAPGQGLEWIGMIHPSDSETILNQKFKDKATLTVDISTSTAYMELSSLRSEDTAVYYCSSWSAKRGDFWGQGTLVTVSS
VL: DIVLTQSPATLSLSPGERATLSCRASESISNNLHWYQQKPHQAPRLLIYYASQSISGVPARFSGSGSGTDFTLTISSVEPEDFAVYYCQQSNSWPLTFGQGTKVEIKR
notes: also called hIP14-H2L8; Hv2 Lv8
For the molecule B10, the EC50 in assay [1] is 0.056 nM; in assay [2], 0.069 nM.

B11: IP14-H3L2 (antibody, V domains shown)
VH: QVQLVQSGAEVKKPGASVKVSCKASGQSFSSYWMNWVRQAPGQGLEWMGMIHPSDSETILNQKFKDKVTMTRDTSTSTVYMELSSLRSEDTAVYYCARWSAKRGDFWGQGTLVTVSS
VL: EIVLTQSPATLSLSPGERATLSCRASESISNNLHWYQQKPGQAPRLLIKYASQSISGIPARFSGSGPGTDFTLTISSVEPEDFAVYYCQQSNSWPLTFGGGTKLEIKR
notes: also called Hv3 Lv2
As for B11, the EC50 was found to be 0.082 nM in assay [1] and 0.1 nM in assay [2].

B12: IP14-H5L4 (antibody, V domains shown)
VH: QVQLVQSGGGLVQPGGSLRLSCAASGQSFSSYWMNWVRQAPGQGLEWIGMIHPSDSETILNQKFKDKATLTVDISKNTAYLQMNSLRAEDTAVYYCSSWSAKRGDFWGQGTLVTVSS
VL: EIVLTQSPDFQSVTPKEKVNITCRASESISNNLHWYQQKPHQSPKLLIYYASQSISGVPSRFSGSGSGTDFNLTINSVEAEDAATYYCQQSNSWPLTFGGGTKLEIKR
notes: also called Hv5 Lv4
As for B12, the results for the 50% effective concentration (EC50) in assay [1] and in assay [2] were 0.069 nM and 0.051 nM, respectively.

B13: IP14-H5L6 (antibody, V domains shown)
VH: QVQLVQSGGGLVQPGGSLRLSCAASGQSFSSYWMNWVRQAPGQGLEWIGMIHPSDSETILNQKFKDKATLTVDISKNTAYLQMNSLRAEDTAVYYCSSWSAKRGDFWGQGTLVTVSS
VL: EIVLTQSPSTLSASVGDRVNITCRASESISNNLHWYQQKPHKAPKLLIYYASQSISGVPSRFSGSGSGTEFNLTISSVQPDDFATYYCQQSNSWPLTFGQGTKVEIKR
notes: also called Hv5 Lv6
With B13, the EC50 in assay [1] was found to be 0.073 nM; in assay [2], 0.044 nM.

B14: IP14-H6L4 (antibody, V domains shown)
VH: QVQLVQSGGGLVKPGHSLRLSCAASGQSFSSYWMNWVRQAPGKGLEWIGMIHPSDSETILNQKFKDKATLSVDIAKNSAYLQMNSLRAEDTAVYYCSSWSAKRGDFWGQGTLVTVSS
VL: EIVLTQSPDFQSVTPKEKVNITCRASESISNNLHWYQQKPHQSPKLLIYYASQSISGVPSRFSGSGSGTDFNLTINSVEAEDAATYYCQQSNSWPLTFGGGTKLEIKR
notes: also called Hv6 Lv4
B14: the EC50 was found to be 0.073 nM in assay [1] and 0.051 nM in assay [2].

(Values after patent US20170240628A1 (CELLMID, published 2017).)
